Read-outs that look alike come from different tables or passages of the source. One block for each binder: values may come before it. Bridge positions count the residues as written; N and C are the ends. Square brackets hold non-standard residues; d marks the D form. Ends that are not written are not given here. NMeY = CN[C@@H](Cc1ccc(O)cc1)C(=O)O; NMeL = CN[C@@H](CC(C)C)C(=O)O; Pen = CC(C)(S)[C@H](N)C(=O)O; NMeA = CN[C@@H](C)C(=O)O; Sar = CNCC(=O)O
Experiments:
[1] = molecular target: T1, soluble human FcRn (shFcRn) (human, UniProt P55899 24-297; P61769 21-119); test: IgG competition ELISA
T1 construct: Biotinylated for the ELISA, amine-coupled to a CM5 chip for SPR; also called biotinylated shFcRn
Method: (§1) The wells were coated with 100 μl/well of 1 μg/ml biotinylated-shFcRn in Buffer A. The plate was sealed and incubated at 37° C. for 2 hours. Afterwards, the plate was washed with 200 μl/well of Buffer B (Buffer B: 100 mM MES pH 6, 150 mM NaCl, 0.5% BSA IgG-free (Jackson ImmunoResearch, West Grove, Pa.), 0.05% Tween-20). […] To allow for mixing, the plate was rocked for 2 minutes, sealed and incubated at 37° C. for 2 hours. […] The plate was covered, incubated for 30 minutes at room temperature and washed 4 times with 200 μl/well of ice-cold buffer B. SureBlue TMB substrate solution (100 μl/well, KPL, Gaithersburg, Md.) was added and the plate was allowed to incubate at room temperature until color developed, which took 5 to 10 minutes. Once color developed, 100 μl/well of TMB stop solution (KPL, Gaithersburg, Md.) was added and the absorbance was measured at 450 nm. The data was plotted as absorbance vs. peptide concentration to derive the inhibitory concentration 50% (IC₅₀) values.

[2] = molecular target: T1, soluble human FcRn (shFcRn); test: IgG competition ELISA; remark: listed apart in the source
Method: as §1

[3] = molecular target: T1, soluble human FcRn (shFcRn); test: IgG competition ELISA; remark: listed apart in the source
Method: as §1

[4] = molecular target: T1, soluble human FcRn (shFcRn); test: SPR pH 6
Method: (§2) The following steps were performed to cross-link soluble human or cynomolgus FcRn to the dextran surface of a CM5 sensor chip (Biacore AB, Uppsala, Sweden) by an amine coupling reaction involving 1-ethyl-(3-dimethylaminopropyl)-carbodiimide hydrochloride (EDC) (Biacore AB, Uppsala, Sweden) and N-hydroxysuccinimide (NHS) (Biacore AB, Uppsala, Sweden) as recommended by Biacore (BIAapplications Handbook, version AB, section 4.2, Biacore AB, Uppsala, Sweden). […] Residual sites on the FcRn flow cell were blocked with 1 M ethanolamine hydrochloride pH 8.5 (Biacore AB, Uppsala, Sweden). A control flow cell was blocked with ethanolamine for reference subtraction. For analysis of the monomeric peptides, FcRn was coated to a final density of 4000-5000 response units (RU). For analysis of the peptide dimers, FcRn was coated to a density of 2000-2500 RU. All SPR measurements were performed using a BIACORE 3000 Instrument (Biacore AB Uppsala, Sweden). For measurements done at either pH 6 or pH 7.4, experiments were performed in 50 mM phosphate, 100 mM sodium chloride, 0.01% surfactant P20 (Biacore AB, Uppsala, Sweden).
(§3) Ten, 2-fold dilutions of the peptide were injected over the FcRn-CM5 chip at a rate of 20 μl/min for 2 min. The peptide was dissociated from the chip for 2.5 minutes with buffer. Any remaining peptide was removed from the chip with a 30 second injection of HBS-P buffer (Biacore AB, Uppsala, Sweden) at a rate of 30 μl/min. Sensorgrams were generated and analyzed using BiaEval software version 3.1 (Biacore AB, Uppsala, Sweden). The equilibrium RU observed for each injection was plotted against concentration. The equilibrium KD values were derived by analysis of the plots using the steady state affinity model included in the BiaEval software.

[5] = molecular target: T1, soluble human FcRn (shFcRn); test: IgG competition ELISA; remark: listed apart in the source
Method: as §1

[6] = molecular target: T1, soluble human FcRn (shFcRn); test: SPR pH 7.4
Method: as §2
(§4) Ten, 2-fold dilutions of the peptide were injected over the FcRn-CM5 chip at a rate of 20 μl/min for 2 min. The peptide was dissociated from the chip for 2.5 minutes with buffer. […] Sensorgrams were generated and analyzed using BiaEval software version 3.1 (Biacore AB, Uppsala, Sweden). […]

[7] = molecular target: T1, soluble human FcRn (shFcRn); test: SPR pH 7.4; Peptide No. 146: Pen for Cys and NMeLeu for Leu (RF-Pen-TGHFGG-NMeLeu-YPCNGP)
Method: as §2, §4

[8] = molecular target: T1, soluble human FcRn (shFcRn); test: SPR pH 6; Peptide No. 74: Pen, G and lower-case a (QRF-Pen-TGHF-G-a-LYPCNGP)
Method: as §2, §4

[9] = molecular target: T1, soluble human FcRn (shFcRn); test: IgG competition ELISA; remark: listed apart in the source
Method: as §1

[10] = molecular target: T1, soluble human FcRn (shFcRn); test: SPR pH 6; remark: listed apart in the source
Method: as §2, §3

[11] = molecular target: T1, soluble human FcRn (shFcRn); test: IgG competition ELISA; remark: listed apart in the source
Method: as §1

[12] = molecular target: T1, soluble human FcRn (shFcRn); test: SPR pH 6; remark: listed apart in the source
Method: as §2, §4

[13] = molecular target: T1, soluble human FcRn (shFcRn); test: IgG competition ELISA; remark: listed apart in the source
Method: as §1

[14] = molecular target: T1, soluble human FcRn (shFcRn); test: SPR pH 6; remark: listed apart in the source
Method: as §2, §4

[15] = molecular target: T1, soluble human FcRn (shFcRn); test: IgG competition ELISA; remark: listed apart in the source
Method: as §1

[16] = molecular target: T1, soluble human FcRn (shFcRn); test: SPR pH 6; Peptide No. 113: Pen, NMeLeu (QRF-Pen-TGHFGG-NMeLeu-YPCNGP)
Method: as §2, §4

[17] = molecular target: T1, soluble human FcRn (shFcRn); test: SPR pH 6; Peptide No. 114: Pen, NMeTyr (QRF-Pen-TGHFGGL-NMeTyr-PCNGP)
Method: as §2, §4

IC50 [1]: 11.4 µM
B1: Peptide No. 96 (peptide)
peptide: QR[dF][Pen]TGHFGGLYPCNGP-NH2
modifications: disulfide 4-14; N-terminus assumed
SMILES: CC(C)C[C@@H]1NC(=O)CNC(=O)CNC(=O)[C@H](Cc2ccccc2)NC(=O)[C@H](Cc2c[nH]cn2)NC(=O)CNC(=O)[C@H]([C@@H](C)O)NC(=O)[C@@H](NC(=O)[C@@H](Cc2ccccc2)NC(=O)[C@H](CCCNC(=N)N)NC(=O)[C@@H](N)CCC(N)=O)C(C)(C)SSC[C@@H](C(=O)N[C@@H](CC(N)=O)C(=O)NCC(=O)N2CCC[C@H]2C(N)=O)NC(=O)[C@@H]2CCCN2C(=O)[C@H](Cc2ccc(O)cc2)NC1=O

IC50 [2]: 2000 nM
IC50 [3]: 2000 nM
B2: Peptide No. 99 (peptide)
peptide: RF[Pen]TGHFGGLYPC-NH2
modifications: disulfide 3-13; N-terminus assumed
SMILES: CC(C)C[C@@H]1NC(=O)CNC(=O)CNC(=O)[C@H](Cc2ccccc2)NC(=O)[C@H](Cc2c[nH]cn2)NC(=O)CNC(=O)[C@H]([C@@H](C)O)NC(=O)[C@@H](NC(=O)[C@H](Cc2ccccc2)NC(=O)[C@@H](N)CCCNC(=N)N)C(C)(C)SSC[C@@H](C(N)=O)NC(=O)[C@@H]2CCCN2C(=O)[C@H](Cc2ccc(O)cc2)NC1=O

Kd [4]: 58 nM
IC50 [5]: 1000 nM
Kd [6]: 350 nM
B3: Peptide No. 147 (peptide)
peptide: RF[Pen]TGHFG[Sar]YPCNGP-NH2
modifications: disulfide 3-12; N-terminus assumed
SMILES: C[C@@H](O)[C@@H]1NC(=O)[C@@H](NC(=O)[C@H](Cc2ccccc2)NC(=O)[C@@H](N)CCCNC(=N)N)C(C)(C)SSC[C@@H](C(=O)N[C@@H](CC(N)=O)C(=O)NCC(=O)N2CCC[C@H]2C(N)=O)NC(=O)[C@@H]2CCCN2C(=O)[C@H](Cc2ccc(O)cc2)NC(=O)CN(C)C(=O)CNC(=O)[C@H](Cc2ccccc2)NC(=O)[C@H](Cc2c[nH]cn2)NC(=O)CNC1=O
notes: copied as printed (RF-Pen-TGHFG-Sar-YPCNGP); a Leu after Sar may be missing in the print

Kd [4]: 59 nM
Kd [7]: 280 nM
IC50 [5]: 2100 nM
B4: Peptide No. 146 (peptide)
peptide: RF[Pen]TGHFGG[NMeL]YPCNGP-NH2
modifications: disulfide 3-13; N-terminus assumed
SMILES: CC(C)C[C@H]1C(=O)N[C@@H](Cc2ccc(O)cc2)C(=O)N2CCC[C@H]2C(=O)N[C@H](C(=O)N[C@@H](CC(N)=O)C(=O)NCC(=O)N2CCC[C@H]2C(N)=O)CSSC(C)(C)[C@H](NC(=O)[C@H](Cc2ccccc2)NC(=O)[C@@H](N)CCCNC(=N)N)C(=O)N[C@@H]([C@@H](C)O)C(=O)NCC(=O)N[C@@H](Cc2c[nH]cn2)C(=O)N[C@@H](Cc2ccccc2)C(=O)NCC(=O)NCC(=O)N1C

Kd [8]: 480 nM
IC50 [9]: 2000 nM
B5: Peptide No. 74 (peptide)
peptide: QRF[Pen]TGHFG[dA]LYPCNGP-NH2
modifications: disulfide 4-14; N-terminus assumed
SMILES: CC(C)C[C@@H]1NC(=O)[C@@H](C)NC(=O)CNC(=O)[C@H](Cc2ccccc2)NC(=O)[C@H](Cc2c[nH]cn2)NC(=O)CNC(=O)[C@H]([C@@H](C)O)NC(=O)[C@@H](NC(=O)[C@H](Cc2ccccc2)NC(=O)[C@H](CCCNC(=N)N)NC(=O)[C@@H](N)CCC(N)=O)C(C)(C)SSC[C@@H](C(=O)N[C@@H](CC(N)=O)C(=O)NCC(=O)N2CCC[C@H]2C(N)=O)NC(=O)[C@@H]2CCCN2C(=O)[C@H](Cc2ccc(O)cc2)NC1=O

Kd [10]: 1000 nM
IC50 [11]: 5.5 µM
B6: Peptide No. 213 (peptide)
peptide: QRF[Pen][NMeA]GHFGGLYPCNGP-NH2
modifications: disulfide 4-14; N-terminus assumed
SMILES: CC(C)C[C@@H]1NC(=O)CNC(=O)CNC(=O)[C@H](Cc2ccccc2)NC(=O)[C@H](Cc2c[nH]cn2)NC(=O)CNC(=O)[C@H](C)N(C)C(=O)[C@@H](NC(=O)[C@H](Cc2ccccc2)NC(=O)[C@H](CCCNC(=N)N)NC(=O)[C@@H](N)CCC(N)=O)C(C)(C)SSC[C@@H](C(=O)N[C@@H](CC(N)=O)C(=O)NCC(=O)N2CCC[C@H]2C(N)=O)NC(=O)[C@@H]2CCCN2C(=O)[C@H](Cc2ccc(O)cc2)NC1=O

Kd [10]: 760 nM
B7: Peptide No. 195 (peptide)
peptide: QRF[Pen]GGHFGGLYPCNGP-NH2
modifications: disulfide 4-14; N-terminus assumed
SMILES: CC(C)C[C@@H]1NC(=O)CNC(=O)CNC(=O)[C@H](Cc2ccccc2)NC(=O)[C@H](Cc2c[nH]cn2)NC(=O)CNC(=O)CNC(=O)[C@@H](NC(=O)[C@H](Cc2ccccc2)NC(=O)[C@H](CCCNC(=N)N)NC(=O)[C@@H](N)CCC(N)=O)C(C)(C)SSC[C@@H](C(=O)N[C@@H](CC(N)=O)C(=O)NCC(=O)N2CCC[C@H]2C(N)=O)NC(=O)[C@@H]2CCCN2C(=O)[C@H](Cc2ccc(O)cc2)NC1=O

Kd [12]: 34 µM
IC50 [13]: 92 µM
Binder: QRFCTGHFGGLXPCNGP (Pen 4; 3-pyridylAla 12; disulfide 4-14; C-terminal amide) [Peptide No. 67]

Kd [14]: 140 nM
IC50 [3]: 1500 nM
B8: Peptide No. 142 (peptide)
peptide: RF[Pen]TGHFG[dP]LYPC-NH2
modifications: disulfide 3-13; N-terminus assumed
SMILES: CC(C)C[C@@H]1NC(=O)[C@H]2CCCN2C(=O)CNC(=O)[C@H](Cc2ccccc2)NC(=O)[C@H](Cc2c[nH]cn2)NC(=O)CNC(=O)[C@H]([C@@H](C)O)NC(=O)[C@@H](NC(=O)[C@H](Cc2ccccc2)NC(=O)[C@@H](N)CCCNC(=N)N)C(C)(C)SSC[C@@H](C(N)=O)NC(=O)[C@@H]2CCCN2C(=O)[C@H](Cc2ccc(O)cc2)NC1=O

IC50 [15]: 4.9 µM
B9: Peptide No. 194 (peptide)
peptide: QRFCTGHFGXYPCNGP
modifications: Pen 4; X 10 = D,L-Friedinger's lactam (dipeptide mimetic in place of Gly-Leu); disulfide 4-13; C-terminal amide

Kd [16]: 86 nM
IC50 [5]: 1600 nM
B10: Peptide No. 113 (peptide)
peptide: QRF[Pen]TGHFGG[NMeL]YPCNGP-NH2
modifications: disulfide 4-14; N-terminus assumed
SMILES: CC(C)C[C@H]1C(=O)N[C@@H](Cc2ccc(O)cc2)C(=O)N2CCC[C@H]2C(=O)N[C@H](C(=O)N[C@@H](CC(N)=O)C(=O)NCC(=O)N2CCC[C@H]2C(N)=O)CSSC(C)(C)[C@H](NC(=O)[C@H](Cc2ccccc2)NC(=O)[C@H](CCCNC(=N)N)NC(=O)[C@@H](N)CCC(N)=O)C(=O)N[C@@H]([C@@H](C)O)C(=O)NCC(=O)N[C@@H](Cc2c[nH]cn2)C(=O)N[C@@H](Cc2ccccc2)C(=O)NCC(=O)NCC(=O)N1C

Kd [17]: 92 µM
B11: Peptide No. 114 (peptide)
peptide: QRF[Pen]TGHFGGL[NMeY]PCNGP-NH2
modifications: disulfide 4-14; N-terminus assumed
SMILES: CC(C)C[C@@H]1NC(=O)CNC(=O)CNC(=O)[C@H](Cc2ccccc2)NC(=O)[C@H](Cc2c[nH]cn2)NC(=O)CNC(=O)[C@H]([C@@H](C)O)NC(=O)[C@@H](NC(=O)[C@H](Cc2ccccc2)NC(=O)[C@H](CCCNC(=N)N)NC(=O)[C@@H](N)CCC(N)=O)C(C)(C)SSC[C@@H](C(=O)N[C@@H](CC(N)=O)C(=O)NCC(=O)N2CCC[C@H]2C(N)=O)NC(=O)[C@@H]2CCCN2C(=O)[C@H](Cc2ccc(O)cc2)N(C)C1=O

IC50 [15]: 19 µM
B12: Peptide No. 216 (peptide)
peptide: QRFCTGHFGXYPCNGP
modifications: Pen 4; X 10 = L,L-Friedinger's lactam (dipeptide mimetic in place of Gly-Leu); disulfide 4-13; C-terminal amide
